How the values were obtained:
[1] = biological target: T1, Cowpea mosaic virus (CPMV) Large (L) coat protein (Cowpea mosaic virus, UniProt P03599 460-833); test: cryo-EM structure; purified CPMV-T particles (naturally empty capsid assembled in planta), ~1.92 mg/ml, vitrified at 4 °C; icosahedral (I3) symmetry imposed; 4.25 Å; conditions: both partners purified
T1 construct: Large (L) coat protein of Cowpea mosaic virus, cut from the RNA-2-encoded precursor polyprotein (VP60) by the 24 K viral proteinase; numbers count on: the mature L subunit; 60 copies each of L and S form the icosahedral capsid; also called L subunit; large coat protein subunit; source: for the cleaved eVLP map: recombinant eVLP from transient expression of VP60 and the 24 K protease
T1 sequence: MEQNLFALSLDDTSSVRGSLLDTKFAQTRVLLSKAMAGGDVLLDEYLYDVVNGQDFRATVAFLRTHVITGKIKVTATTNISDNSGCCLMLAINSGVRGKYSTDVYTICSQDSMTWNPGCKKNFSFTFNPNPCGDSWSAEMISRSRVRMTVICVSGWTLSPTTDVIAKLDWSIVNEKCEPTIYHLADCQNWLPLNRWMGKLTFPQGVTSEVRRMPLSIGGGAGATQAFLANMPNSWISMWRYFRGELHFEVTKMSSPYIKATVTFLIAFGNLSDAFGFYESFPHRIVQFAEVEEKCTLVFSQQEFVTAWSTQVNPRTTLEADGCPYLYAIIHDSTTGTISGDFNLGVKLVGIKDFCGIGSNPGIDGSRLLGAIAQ

[2] = biological target: the molecule itself; test: as above

B1: Cowpea mosaic virus (CPMV) Small (S) coat protein with the C terminal extension (as in CPMV-T) (natural protein)
chain: GPVCAEASDVYSPCMIASTPPAPFSDVTAVTFDLINGKITPVGDDNWNTHIYNPPIMNVLRTAAWKSGTIHVQLNVRGAGVKRADWDGQVFVYLRQSMNPESYDARTFVISQPGSAMLNFSFDIIGPNSGFEFAESPWANQTTWYLECVATNPRQIQQFEVNMRFDPNFRVAGNILMPPFPLSTETPPLLKFRFRDIERSKRSVMVGHTATAA
notes: Small (S) coat protein of Cowpea mosaic virus, cut from the RNA-2-encoded precursor polyprotein (VP60), with the 24 amino acid C terminal extension kept; density to Thr184 and from Pro188 to Ile197; numbers count on: the mature S subunit; Naturally empty particles are cleaved more slowly and keep the C-terminus for longer; residues after Ile197 are not seen in the map; also called S subunit; …
[1]
  binding result: binds
[2]
  binding result: binds

— paper PMC5428714, “The structures of a naturally empty cowpea mosaic virus particle and its genome-containing counterpart by cryo-electron microscopy” (Scientific Reports, 2017)
